Laboratory results taken from the DeepSol protein solubility set.

test: soluble on expression in E. coli; label from the status in PepcDB or PDB records

Row | Sequence | soluble on expression in E. coli
1 | MAHHHHHHMPSLFDPLTIGDLTLANRIIMAPLTRARAGDTRTPNALMARYYAERASAGLIISEATSVTPQGVGYASTPGIWSPEQVDGWRLVTDAVHAAGGRIFLQLWHVGRVSDPVFLDGALPVAPSAIAPGGHVSLVRPQRPYVTPRALELDEIPGVVAAFRRGAENARAAGFDGVEVHGANGYLLDQFLQDSANRRTDAYGGSIENRARLLLEVVDAAIDVWSAARVGVHLAPRGDAHTMGDSDPAATFGHVARELGRRRIAFLFARESFGGDAIGQQLKAAFGGPFIVNENFTLDSAQAALDAGQADAVAWGKLFIANPDLPRRFKLNAPLNEPNAATFYAQGEVGYTDYPALESAA | soluble
2 | MAHHHHHHMTSVEAENQPVEDPETFVVMEENGAPRDPQVAVSALDEAAEEGAVSGGEREPAAAGDDLSNPHVFKVAAREVDEGYMSVIRGLSAFGRADEEVCRNAVDICKDIIAMEQSLFSEVPSYVTNYASMQRAKTVVLNKAVRPHWTIPTPEGPPRTWEEQRAYVDPGVPLMLPYSAERFKKEHPERALVEGTYHNLFYGDGTQVVFTASADNKRKQIEEEKRKHPHPSYHGPYVFEPQQKKPMRVASDFVPSCAEPDRLRVDLRKKPVTKAKAEKSQKKKVTTK | not soluble
3 | MRVMAKIELLAKFTQIALPNSHPLLKKVLNYAKKHFSQCHMLSSSLLILNDTECFKKNYLLNWVYHALECVHEKDISAHSLEEVLQKSHLPIRIKIMAQNTLLEKIEVKVLTFGAEYALFITKHPIAKRFLRQKFSGCVFLETQDELHIRGDSERFWELIVTLNENRIVHNACLDFIYPNGFGKDSYTTMAERKLKECYKTLGFIKHEDFSEVKKRYLELAKTYHPDLCDLKEKKALYAKRFAIIQEAYRHIKKHALEHHHHHH | soluble
4 | MGSDKIHHHHHHMRRKIPSTAALICFEAAARNESFTKAAQELALTQGAVCRQIGGLEAFLNVELFRRSRRGVRLTEAGLSYSRQVAAQLDAVERDTLSVMRQQGANVIELAVVPTFGTQWLLPRLKDFQQRHPEVTVNLTNRTRPFLFADTTFDAAIYFGDADWSGTQSHQLMGENPVPVCSPALLNGQGMLEARHIAQLPLLQQSTRPYAWRQWFGSVGMNVERDMTGPRYELFSMLAQAAMHDMGIALIPPFLIQRELEEGRLVVANRHALSSDKAYYLMIPERKVESASLRAFRDWLVSQAQAYINSSGTNAAN | not soluble
5 | AHHHHHHGSLHLKEKLKGTTTVGLVCKEGVVLAADTRASLGNIIYAKNVTKIHKIDEHLAIAGAGDVGDILNLVRLLKAEANLYKSTVGKEMSVKALATLLANILNGSKYFPYLGWFLVGGYDEKPRLFSVDMVGGITEDNYAAAGSGMEFAYSILDSEYREEMSVNDGIKLAVKAINVAIKRDVFTGDGLLVVTITKDGYKEYRGAELEKMLK | not soluble
6 | MSASLVETVDIEAPVAVTWALWSDVSRWPSFLSHVRLVEPLDERRFAWQLSLPGADKNFVAELTEVIPGDRIAWQTTEGVHHAGVVTFHRLSDTSSRVTLQIEYDPKGFVEHIGALTNLDSTLANYDLGEFQKLAETAAAGLEHHHHHH | not soluble
7 | MGSDKIHHHHHHMDITALQQQLELIQQNDYTQLRHIDINELTLHMLQYIGTTDSYVRYQLIYKCFVHFIHHEFLMDDQLKLLLQTCLSDEYLYCDIYSPHSDGVFTRSYTVSLIALILQFANSHYFCTEEDIEEIKNKLITYTNLETDFRGYIENKGWAHCLAHVSDAFTEIVHNSYTTFEWYEELIHCLLNKIFIPSDLFHNNEDERIVTPLLAMLYHDFPQDELISIIQKKIKRLPQIRKRLSLNEYCILCANIKTFLRTLFFRTKDDHNLAFTARKTERMLKELPNYY | not soluble
8 | MSLRKLGPVTIDPRRHDAVLFDTTLDATQELVRQLQEVGVGTGVFGSGLDVPIVAAGRLAVRPGRCVVVSAHSAGVTAARESGFALIIGVDRTGCRDALRRDGADTVVTDLSEVSVRTGDRRMSQLPDALQALGLADGLVARQPAVFFDFDGTLSDIVEDPDAAWLAPGALEALQKLAARCPIAVLSGRDLADVTQRVGLPGIWYAGSHGFELTAPDGTHHQNDAAAAAIPVLKQAAAELRQQLGPFPGVVVEHKRFGVAVHYRNAARDRVGEVAAAVRTAEQRHALRVTTGREVIELRPDVDWDKGKTLLWVLDHLPHSGSAPLVPIYLGDDITDEDAFDVVGPHGVPIVVRHTDDGDRATAALFALDSPARVAEFTDRLARQLREAPEGHHHHHH | soluble
9 | MEALRLGFSPCPNDTFIFYALVHGRVESPVPLEPVLEDVETLNRWALEGRLPLTKLSYAAYAQVRDRYVALRSGGALGRGVGPLVVARGPLQALEGLRVAVPGRHTTAYFLLSLYAQGFVPVEVRYDRILPMVAQGEVEAGLIIHESRFTYPRYGLVQVVDLGAWWEERTGLPLPLGAILARRDLGEGLIRALDEAVRRSVAYALAHPEEALDYMRAHAQELSDEVIWAHVHTYVNAFSLDVGEEGERAVARLFAEAEARGLAAPSPRPLFV | soluble
10 | MAHHHHHHMSNAEEETVKKKKKYRKDKPWDNENIDHWKVEKFTQEDNKHHFLEESSFKVLFPKYREKYLQQFSSDIKNVLNKHFIKFEIDLIEGYMCVKTTKKTFDPYIIIKSRDMISLLSRSVPFVHAKRVLEDETYCDIIKISGYVRNKNKFIKRRQRLLGSNATTLKALEILTNCYICIHGKTVSVIGHFKSLKVVRRIIIDCMKNIHPVYHIKELIAKRELEKNEEFKNENWEKFLPNFKKRNVQRKKIKEKLDKKKKKNKSVFPPDQLPRKIDIQMETGEYFLNNQKNKKKDKTQDKQQKGND | not soluble
11 | MSLSKSTFEIKNGHFYRNGKITPVLSGEMHYARIPHQYWRHRLQMMKGMGLNTVATYVFWNLHEPEPGKWDFTGDKNLAEFIKTAGEEGMMVILRPGPYVCAEWEFGGYPWWLQNVKGMEIRRDNPEFLKYTKAYIDRLYKEVGSLQCTKGGPIVMVQCENEFGSYVAQRKDIPLEEHRAYNAKIKQQLADAGFNVPLFTSDGSWLFEGGATPGALPTANGESDIENLKKVVDQYHDGKGPYMVAEFYPGWLSHWAEPFPQIGASGIARQTEKYLQNDVSFNFYMVHGGTNFGFTSGANYDKKRDIQPDMTSYDYDAPISEAGWVTPKYDSIRNVIKKYVKYTIPEAPAPNPVIEIPSIQLNKVADVLAFAEKQKPVSSDTPLTFEQLNQGYGYVLYTRHFNQPISGTLEIPGLRDYAVVYVDGEQVGVLNRNTKTYSMEIEVPFNATLQILVENMGRINYGSEIVHNTKGIISPVQIAGKEIVGGWDMYQLPMDEMPDLTKLKADTHKNVPSEVAKLKGCPVLYEGTFTLDKVGDTFMDMESWGKGIVFVNGVNIGRYWKVGPQQTLYVPGVWLKKGENKIVIFEQLNETPQTEVKTVKTPVLMKLKGEGHHHHHH | soluble
12 | MAHHHHHHMIIEKGEPLNKEIIDHVLDHVTEFPTPTMVSVGDGKADCIVLENFLTHEECDQLVAACEKVGYTFWLQKNHHDADGEATCDSGSKAVRVVDTIEANFPHLSAKLYERIARVVSLKPKCFSEDMPNAEELFERELAGTWVPHALSENLLFGRYHPGGHFMPHVDGATILDLNTRSFYTLLIYLNDCLHGGETFIFAGEQCNVMYLDEKENQYRGNATQRVGAVYPKKGSAAFFYYNLLHEGAPVLEGHKYICRADLLYHRTPTIFTSEADEKAFKAYQEARLAESHGDAERACQLFQRVRKLSKGVASIFQIE | soluble
13 | MGSDKIHHHHHHMDLWKLYQPGTPAAIVAWGQLGTAHAKTTYGLLRHSRLFKPVCVVAEHEGKMASDFVKPVRYDVPVVSSVEKAKEMGAEVLIIGVSNPGGYLEEQIATLVKKALSLGMDVISGLHFKISQQTEFLKIAHENGTRIIDIRIPPLELDVLRGGIYRKKIKVVGVFGTDCVVGKRTTAVQLWERALEKGIKAGFLATGQTGILIGADAGYVIDAVPADFVSGVVEKAVLKLEKTGKEIVFVEGQGALRHPAYGQVTLGLLYGSNPDVVFLVHDPSRDHFESFPEIPKKPDFEEERRLIETLSNAKVIGGVSLNGGFETDLPVYDPFNTDDLDEMLERAMVW | soluble
14 | MKGEGVIVGILNKNFSLSKGDLDVVSLGEILVDMISTEEVNSLSQSREYTRHFGGSPANIAVNLSRLGKKVALISRLGADAFGNYLLDVLKGEQIITDGIQQDKERRTTIVYVSKSTRTPDWLPYREADMYLQEDDIIFELIKRSKVFHLSTFILSRKPARDTAIKAFNYAREQGKIVCFDPCYRKVLWPEGDDGAGVVEEIISRADFVKPSLDDARHLFGPDSPENYVKRYLELGVKAVILTLGEEGVIASDGEEIIRIPAFSEDAVDVTGAGDAFWSGFICGLLDGYTVKRSIKLGNGVAAFKIRGVGALSPVPSKEDIIKEYNI | soluble
15 | AHHHHHHGSELFFITSNDGKVREAKKFLEPLGINVIKKPLEYPEIQADTLEDVVVFGLNWLKDKVDKPFIIEDSGLFIEALNGFPGVYSAYVYKTIGLDGILKLMEGIENRKAYFKSVIGFYDGEIHLFVGEVRGRISNEKRGLHGFGYDPIFVPDGFDKTFAEMSTEEKNSVSHRGKALKEFYRWMKENLKK | soluble
16 | MRMNSQWGFKMKILIMGFEYLPVKVGGLAEALTSIAEALASLGHEVLVFTPSHGRFQGSEIGIIKAFGGKVAIKVHLEENGNLRIYRIGGGLLDHQDVYGPGWEGLIRKTVIFGKASVLLLNELLKSEDLPDVLHFHDWHTVFAGALIKKYFRIPAVFTIHRLNKSKIPAFYFHEAGLPELAPYPDLDPEHTGGYIADIVTTVSRGYLLDEWDFFRNFNGKVTYVFNGIDCSFWNENYLKGSRKERRSSILAKFGMSDGITFMFIGRFDRRQKGVDTLLRAIELLSERPEFKEMRFIIIGMGDPELENWARELEKRYDNVRVLTEMLSREFVRELYGSVDFVIIPSYFEPFGLVSLEAMCLGAIPIASSVGGLRDVIVSIDEDHVDGTGLLVKPGDPWDLANAILRMHSIAMDNEFVEKLRDNCKKRAKSFSWENSAKRYLRAYKGNIDRIFDFAMLEHHHHHH | not soluble
17 | MSSSTSSVESVEDESCSNECSASFTFDTNNNSRGNNQVNELAEETHMKLSITPTRESFSLSQLERIITIGKGTFGRVELARDKITGAHYALKVLNIRRVVDMRQTQHVHNEKRVLLQLKHPFIVKMYASEKDSNHLYMIMEFVPGGEMFSYLRASRSFSNSMARFYASEIVCALEYIHSLGIVYRDLKPENLMLSKEGHIKMADFGFAKELRDRTYTICGTPDYLAPESLARTGHNKGVDWWALGILIYEMMVGKPPFRGKTTSEIYDAIIEHKLKFPRSFNLAAKDLVKKLLEVDRTQRIGCMKNGTQDVKDHKWFEKVNWDDTLHLRVEPPIVPTLYHPGDTGNFDDYEEDTTGGPLCSQRDRDLFAEW | not soluble
18 | MVLPPQNRLCNEVCLEAGQSPNSNELYLNSSELLKTELNNDINLCLVDFCERHNIDYRGMVNRLVTNNMYFFYIWGKYALSKA | not soluble
19 | MYSSNYIYQHDDLELHGFLAHEEGIKQSRPAVIVAHDWSGRGEFACLKAKQLAEMGYIGFALDMYGQGQIGSNNDEKMALMQPLYSDRSLLRGRLYAALEAIKSISVVDNNRIAIIGFCFGGLCALDLARSGADIRGAVSFHGLLNKPENLASGRIKAKILALHGYDDPMAKPEQVHAFCQEMTEANVDWQMHMYGQVKHAFTNPQAHDEHLGLIYDEVAARRSWQAMSQFLQEIFN | not soluble
20 | MPKLPLLLSFPLLFFASFAYADEDFVTCYSVLKFINANDGSRLHSHDVKYGSGSGQQSVTAVKNSDDINSHWQIFPALNAKCNRGDAIKCGDKIRLKHLTTGTFLHSHHFTAPLSKQHQEVSAFGSEAESDTGDDWTVICNGDEWLESEQFKLRHAVTGSYLSLSGQQFGRPIHGQREVVGTDSITGGSAWKVAEGIYIKHQQKDL | soluble
